Experimental data from the supplement of paper PMC10567573.

B1: TSPAN10 (parent)
chain: EGCGPPLRRWLRANLAASGGYAIA

Variants of: B1
Test: protein stability index of a GFP-peptide fusion (GPS, HEK-293T) (PSI 1-6); higher = more stable
Conditions: c terminus: a fixed tail appended
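Also: lentivirally expressed fusions sorted by FACS into six bins by GFP to DsRed ratio, PSI derived from sequencing read proportions per bin multiplied by bin number.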

Variant	protein stability index
EGCGPPLRRWLRANLAAKGGYAIA [S18K]	1.61
EGCGPPLRRWLRANLAADGGYAIA [S18D]	2.71
EGCGPPLRRWLRANLAAIGGYAIA [S18I]	1.44
EGCGPPLRRWLRANVAASGGYAIA [L15V]	2.07
EGCGPPLRRWLRANRAASGGYAIA [L15R]	3.06
EGCGPPLRRWLRANTAASGGYAIA [L15T]	1.95
EGCGPPLRRWLRANGAASGGYAIA [L15G]	2.59
EGCGPPLRRWLRANMAASGGYAIA [L15M]	2.16
EGCGPPLRRWLRANIAASGGYAIA [L15I]	1.93
EGCGPPLRRWLRANSAASGGYAIA [L15S]	2.94
EGCGPPLRRWLRANHAASGGYAIA [L15H]	2.62
EGCGPPLRRWLRANQAASGGYAIA [L15Q]	3.2
EGCGPPLRRWLRANNAASGGYAIA [L15N]	2.28
EGCGPPLRRWLRANKAASGGYAIA [L15K]	2.53
EGCGPPLRRWLRANFAASGGYAIA [L15F]	1.58
EGCGPPLRRWLRANEAASGGYAIA [L15E]	2.96
EGCGPPLRRWLRANAAASGGYAIA [L15A]	2.36
EGCGPPLRRWLRANYAASGGYAIA [L15Y]	1.92
EGCGPPLRRWLRANCAASGGYAIA [L15C]	1.49
EGCGPPLRRWLRANDAASGGYAIA [L15D]	2.81
EGCGPPLRRWLRANPAASGGYAIA [L15P]	2.14
EGCGPPLRRWLMANLAASGGYAIA [R12M]	1.9
EGCGPPLRRWLPANLAASGGYAIA [R12P]	2.5
EGCGPPLRRWLYANLAASGGYAIA [R12Y]	2.84

Variant	protein stability index
EGCGPPLRRWLKANLAASGGYAIA [R12K]	2.92
EGCGPPLRRWLWANLAASGGYAIA [R12W]	3.67
EGCGPPLRRWLLANLAASGGYAIA [R12L]	3.2
EGCGPPLRRWLEANLAASGGYAIA [R12E]	2.23
EGCGPPLRRWLTANLAASGGYAIA [R12T]	1.82
EGCGPPLRRWLHANLAASGGYAIA [R12H]	2.47
EGCGPPLRRWLGANLAASGGYAIA [R12G]	1.82
EGCGPPLRRWLCANLAASGGYAIA [R12C]	2.17
EGCGPPLRRWLIANLAASGGYAIA [R12I]	2.82
EGCGPPLRRWLDANLAASGGYAIA [R12D]	1.8
EGCGPPLRRWLFANLAASGGYAIA [R12F]	2.29
EGCGPPLRRWLAANLAASGGYAIA [R12A]	1.75
EGCGPPLRRWLQANLAASGGYAIA [R12Q]	2.17
EGCGPPLRRWLSANLAASGGYAIA [R12S]	2.58
EGCGPPLRRWLNANLAASGGYAIA [R12N]	1.73
EGCGPPLRRWIRANLAASGGYAIA [L11I]	1.91
EGCGPPLRRWCRANLAASGGYAIA [L11C]	1.68
EGCGPPLRRWERANLAASGGYAIA [L11E]	2.57
EGCGPPLRRWRRANLAASGGYAIA [L11R]	2.56
EGCGPPLRRWYRANLAASGGYAIA [L11Y]	1.9
EGCGPPLRRWGRANLAASGGYAIA [L11G]	1.74
EGCGPPLRRWDRANLAASGGYAIA [L11D]	2.12
EGCGPPLRRWQRANLAASGGYAIA [L11Q]	3.13
EGCGPPLRRWTRANLAASGGYAIA [L11T]	2.89

Variant	protein stability index
EGCGPPLRRWHRANLAASGGYAIA [L11H]	2.94
EGCGPPLRRWVRANLAASGGYAIA [L11V]	1.82
EGCGPPLRRWFRANLAASGGYAIA [L11F]	1.03
EGCGPPLRRWPRANLAASGGYAIA [L11P]	2.65
EGCGPPLRRWMRANLAASGGYAIA [L11M]	2.51
EGCGPPLRRWSRANLAASGGYAIA [L11S]	2.61
EGCGPPLRRWARANLAASGGYAIA [L11A]	2.55
EGCGPPLRRWKRANLAASGGYAIA [L11K]	2.43
EGCGPPLRRWWRANLAASGGYAIA [L11W]	1.5
EGCGPPLRRWLRINLAASGGYAIA [A13I]	1.67
EGCGPPLRRWLRFNLAASGGYAIA [A13F]	2.46
EGCGPPLRRWLRWNLAASGGYAIA [A13W]	2.03
EGCGPPLRRWLRRNLAASGGYAIA [A13R]	1.62
EGCGPPLRRWLRENLAASGGYAIA [A13E]	3.18
EGCGPPLRRWLRLNLAASGGYAIA [A13L]	2.21
EGCGPPLRRWLRVNLAASGGYAIA [A13V]	1.75
EGCGPPLRRWLRCNLAASGGYAIA [A13C]	2.93
EGCGPPLRRWLRGNLAASGGYAIA [A13G]	3.35
EGCGPPLRRWLRHNLAASGGYAIA [A13H]	2.26
EGCGPPLRRWLRNNLAASGGYAIA [A13N]	2.19
EGCGPPLRRWLRMNLAASGGYAIA [A13M]	1.4
EGCGPPLRRWLRTNLAASGGYAIA [A13T]	2.25
EGCGPPLRRWLRYNLAASGGYAIA [A13Y]	1.66
EGCGPPLRRWLRQNLAASGGYAIA [A13Q]	2.83

Variant	protein stability index
EGCGPPLRRWLRPNLAASGGYAIA [A13P]	2.87
EGCGPPLRRWLRSNLAASGGYAIA [A13S]	2.58
EGCGPPLRRWLRKNLAASGGYAIA [A13K]	2.95
EGCGPPLRRWLRDNLAASGGYAIA [A13D]	1.83
EGCGPPLRRWLRANLPASGGYAIA [A16P]	1.78
EGCGPPLRRWLRANLKASGGYAIA [A16K]	2.31
EGCGPPLRRWLRANLRASGGYAIA [A16R]	1.68
EGCGPPLRRWLRANLYASGGYAIA [A16Y]	1.48
EGCGPPLRRWLRANLQASGGYAIA [A16Q]	1.57
EGCGPPLRRWLRANLEASGGYAIA [A16E]	2.58
EGCGPPLRRWLRANLCASGGYAIA [A16C]	1.78
EGCGPPLRRWLRANLIASGGYAIA [A16I]	1.96
EGCGPPLRRWLRANLSASGGYAIA [A16S]	1.68
EGCGPPLRRWLRANLMASGGYAIA [A16M]	2.98
EGCGPPLRRWLRANLTASGGYAIA [A16T]	1.63
EGCGPPLRRWLRANLDASGGYAIA [A16D]	2.12
EGCGPPLRRWLRANLVASGGYAIA [A16V]	1.65
EGCGPPLRRWLRANLWASGGYAIA [A16W]	1.45
EGCGPPLRRWLRANLHASGGYAIA [A16H]	2.13
EGCGPPLRRWLRANLGASGGYAIA [A16G]	1.71
EGCGPPLRRWLRANLLASGGYAIA [A16L]	1.53
EGCGPPLRRWLRANLNASGGYAIA [A16N]	2.5
